{
  "source": "patent US9499823B2",
  "about": "“Constructs expressing chimeric receptors and use thereof for the controlled activation of defence response to pathogens in plants” (priority 2009, dated 2016)",
  "molecules": {"B1": {"name": "EWAK: chimera: EFR ectodomain fused to the TM-iJM-kinase portion of WAK1, GFP-fused (protein)", "chain": "RFSNETDMQALLEFKSQVSENNKREVLASWNHSSPFCNWIGVTCGRRRERVISLNLGGFKLTGVISPSIGNLSFLRLLNLADNSFGSTIPQKVGRLFRLQYLNMSYNLLEGRIPSSLSNCSRLSTVDLSSNHLGHGVPSELGSLSKLAILDLSKNNLTGNFPASLGNLTSLQKLDFAYNQMRGEIPDEVARLTQMVFFQIALNSFSGGFPPALYNISSLESLSLADNSFSGNLRADFGYLLPNLRRLLLGTNQFTGAIPKTLANISSLERFDISSNYLSGSIPLSFGKLRNLWWLGIRNNSLGNNSSSGLEFIGAVANCTQLEYLDVGYNRLGGELPASIANLSTTLTSLFLGQNLISGTIPHDIGNLVSLQELSLETNMLSGELPVSFGKLLNLQVVDLYSNAISGEIPSYFGNMTRLQKLHLNSNSFHGRIPQSLGRCRYLLDLWMDTNRLNGTIPQEILQIPSLAYIDLSNNFLTGHFPEEVGKLELLVGLGASYNKLSGKMPQAIGGCLSMEFLFMQGNSFDGAIPDISRLVSLKNVDFSNNNLSGRIPRYLASLPSLRNLNLSMNKFEGRVPTTGVFRNATAVSVFGNTNICGGVREMQLKPCIVQASPRKRKPLSVRKKVVSGWTTILLVTTIGFLVILLGVACIQQRMKHLKDTKLREQFFEQNGGGMLTQRLSGAGPSNVDVKIFTEDGMKKATNGYAESRILGQGGQGTVYKGILPDNSIVAIKKARLGDSSQVEQFINEVLVLSQINHRNVVKLLGCCLETEVPLLVYEFITNGTLFDHLHGSMIDSSLTWEHRLKIAIEVAGTLAYLHSSASIPIIHRDIKTANILLDVNLTAKVADFGASRLIPMDKEELETMVQGTLGYLDPEYYNTGLLNEKSDVYSFGVVLMELLSGQKALCFKRPQSSKHLVSYFATATKENRLDEIIGGEVMNEDNLKEIQEAARIAAECTRLMGEERPRMKEVAAKLEALRVEKTKHKWSDQYPEENEHLIGGHILSAQGETSSSIGYDSIKNVAILDIETGR", "modifications": "left off: large carriers"}},
  "key": {"[1]": {"test_system": "ethylene biosynthesis in tobacco leaves", "assay": "Induction of ethylene biosynthesis in agroinfiltrated tobacco leaf explants", "assay_type": "cell-based, Nicotiana tabacum", "details": "elfl8 10 μM, 2 h", "method": "F) Induction of ethylene biosynthesis in agroinfiltrated tobacco leaves expressing the fluorescent EFR, FLS2, TMC, eJMC and eJMC^Y859A. NC: negative control, represented by agroinfiltrated leaf tissues expressing fluorescent EFR or FLS2 and elicited with flg22 or elfl8, respectively. Results are averages±standard error (n=3).\nExcised infiltrated leaf sectors were stimulated for 2 h with water or the elicitor ([…] and 100 μg/ml for OGs). Values are means±s.e.m. (N=3).\nE) Induction of ethylene biosynthesis in agroinfiltrated tobacco leaves expressing EFR, WAK1, WEG and EWAK. Each construct was stimulated for 2 h with elfl8 (10 μM) or OGs (100 μg/mL). NC: negative control, represented by agroinfiltrated leaf tissue expressing EFR or FLS2 when OGs or elfl8, respectively, were used for elicitation. Error bars indicate the standard error of three independent replicates.\n(A) Induction of ethylene biosynthesis in agroinfiltrated tobacco explants expressing EFR, WAK1, WEG and EWAK. […] Agroinfiltrated leaf tissues expressing EFR or WEG and elicited with OGs or elfl8 respectively, represented our negative control. Values are means±s.e.m. (N=3). (B) Elicitor-induced gene expression in untransformed Col-0 and Col-0 efr plants, and in transgenic Arabidopsis Col-0 efr plants stably expressing WEG. Accumulation of At3g22270 and At4g37640 transcripts was analysed by semi-quantitative PCR, using the UBQ5 gene for normalization. Adult leaves were syringe-infiltrated with water, OGs (25 μg/ml) or elfl8 (10 μM) for 3 h. The experiment was repeated three times with similar results. The same experiment was performed in a second independent transgenic line expressing WEG with similar results.\nApproximately 150 mg of tobacco agroinfiltrated leaf were cut in small slices and extensively washed with sterile distilled water. The explants were placed in sealed 10 mL flasks containing 2 mL of sterile water alone or supplemented with 100 mg L^−1 OGs, or 1 μM flg22 or 10 μM elfl8. 450 μl headspace samples were withdrawn from the vial after 2 h treatment and analyzed by gas chromatography-mass spectrometry using an Agilent 6850A gas chromatograph coupled to a 5973N quadrupole mass selective detector (Agilent Technologies, Palo Alto, Calif., USA). Chromatographic separations were carried out an HP Plot-Q fused-silica capillary column (30 m×0.32 mm i.d.) coated with polystyrene-divinylbenzene (film thickness 0.20 μm) as stationary phase. Injection mode: splitless at a temperature of 220° C. The initial temperature of the oven was held at 50° C. for 8 min then ramped to 220° C. at a rate of 15° C./min and held for 5 min. Helium was used as carrier gas at a constant flow of 1.0 ml/min. Mass spectra were collected both in full scan and in SIM mode monitoring the ions m/z m/z 26, m/z 27 and m/z 28 (ionization energy 70 eV; ion source 280° C.; ion source vacuum 10^−5 Torr)."}, "[2]": {"test_system": "Pseudomonas syringae DC3000", "assay": "Pseudomonas DC3000 infection of Arabidopsis Ws-0 plants by spraying", "assay_type": "in vivo", "details": "transgenic Ws-0 plants vs Ws-0 wild type, 4 days post infection", "from_the_text": "C) Pseudomonas DC3000 infections. (Left Panel) Symptoms disease of wild type and transformed plants after 4 days post infection. (Right panel) Growth of Pseudomonas syringae DC3000 after 4 day post infection. ***, p<0.005.\nThe authors therefore infected A. thaliana plants by spraying Pst DC3000 bacteria onto leaf surfaces. […] Higher resistance of eJMC plants, compared to Ws-0 wild-type plants, was found in all of three independent experiments."}, "[3]": {"test_system": "oxidative burst in tobacco leaves", "assay": "Oxidative burst, luminol-dependent photon counting in agroinfiltrated tobacco leaf slices", "assay_type": "cell-based, Nicotiana tabacum", "details": "10 μM elfl8, after 15 min", "method": "D) Oxidative burst in tobacco leaves transiently expressing eJMC, EFR and EWAK. Photon counting was realized using tobacco leaves slices in a solution of luminol and peroxidase, during treatment with 10 μM elfl8. eJMC- and EFR-expressing explants were used as a negative and a positive control, respectively. Experiment was repeated at least 6 times on two independent replicated.\n(C) Oxidative burst in agroinfiltrated tobacco leaves expressing EWAK. Leaves expressing eJMC and EFR were used as a negative and a positive control, respectively. The burst was measured by photon counting using leaf slices incubated in a solution containing 10 μM elfl8, luminol and peroxidase. The experiment was repeated at least 6 times with two independent replicates.\n(§1) 3,3′-diaminobenzidine (DAB) staining, callose deposition and gene resistance analysis were assayed as described (Galletti et al., 2008). For measuring active oxygen species released by tobacco agroinfiltrated plants after elicitor treatment, the authors used a modified luminol-dependent assay (Gomez et al., 1999). Slices, corresponding to approximately 30 mg fresh weight, were transferred to assay tubes containing 1 μM flg22 or 10 μM elfl8 in aqueous solution supplied with 40 μM luminol (SIGMA). Chemo-luminescence was measured in a liquid scintillation counter (LS-6500, Beckman) after 5 and 15 min upon addition of elicitors."}, "[4]": {"test_system": "Agrobacterium tumefaciens GV3101", "assay": "Growth of Agrobacterium in N. tabacum tissues transiently expressing receptor proteins", "assay_type": "in vivo", "details": "24 h after inoculation, tobacco tissues expressing the receptor, p<0.005", "method": "F) Growth of Agrobacterium in N. tabacum tissues transiently expressing receptor proteins. Tobacco leaves were infiltrated with Agrobacterium expressing the indicated receptors and the number of Agrobacterium colony-forming units (c.f.u.) in the tissues was analyzed soon after infiltration (white bars) and 24 h (gray bars). EFR and eJMC were used as positive and negative controls, respectively. For each receptor, three samples were analyzed in five independent experiments. *, p<0.005.\n(§2) (A) Growth of A. tumefaciens in N. tabacum tissues transiently expressing receptor proteins. Tobacco leaves were infiltrated with Agrobacterium carrying the indicated receptor constructs and the number of Agrobacterium colony-forming units (c.f.u.) in the tissues was analyzed immediately after infiltration (white bars) and after 24 h (gray bars). EFR and eJMC were used as positive and negative controls, respectively. For each receptor, three samples were analyzed in five independent experiments. Asterisks indicate statistically significant differences against control (Col-0 for WAK1 plants and Col-0 efr for WEG and EWAK plants). (B) Lesion development in Arabidopsis wild type (Col-0) and mutant Col-0 efr plants and in transgenic plants expressing WAK1, WEG and EWAK plants inoculated with B. cinerea at 48 h post-inoculation. Values are means±s.e.m. of at least 16 lesions. The same experiment was performed in a second independent transgenic line expressing WAK1 with similar results. Asterisks indicate statistically significant differences against control (Col-0 for WAK1 plants and Col-0 efr for WEG and EWAK plants).\n(§3) Agrobacterium tumefaciens GV3101 strain infections was performed as described in Katagiri et al., (2002) and using a concentration of Agrobacterium corresponding at an OD600 of 1.0 in 10 mM MgCl2 and 600 μM acetosyringone. After 24 h of infiltration, serial dilution of Agrobacterium colonies were deposited on LB agar supplemented with gentamycin and rifampicin and grown for 2-3 days at 28° C. in the dark. At least 5 independent plants and 3 different leaves by plant, were used per experiment. Pectobacterium carotovorum subsp. carotovorum infections Pectobacterium carotovorum subsp. carotovorum (formely Erwinia carotovora; Gardan et al., 2003) (strain DMSZ 30169) was obtained from DSMZ GmbH (Germany). A liquid colture using 10 ml LB medium was prepared. After 16 h of growth at 28° C. on rotary shaker at 250 rpm, bacterial cells were harvested by centrifugation and the pellet was resuspended in 50 mM potassium phosphate buffer pH 7.0 corresponding to 5×10^7 CFU/ml."}, "B. cinerea": {"test_system": "B. cinerea", "assay": "Lesion development in Arabidopsis plants inoculated with B. cinerea", "assay_type": "in vivo", "details": "transgenic Arabidopsis vs Col-0 or Col-0 efr, 48 h post-inoculation", "method": "as §2"}, "[5]": {"test_system": "Pectobacterium carotovorum subsp. carotovorum", "assay": "Infection assay with Pectobacterium carotovorum on transgenic Arabidopsis leaves", "assay_type": "in vivo", "details": "transgenic Arabidopsis vs Col-0 or Col-0 efr, 24 h, 5×10^7 CFU/ml", "method": "Inoculum concentration was 5×10^7 CFU/ml). Values are means±SE of at least 16 lesions. Asterisks indicate statistically significant differences against control plants (Col-0 or Col-0 efr), according to Student's t test (*, p<0.0005).\nas §3, with “After 16 h of growth at 28° C. on rotary shaker at 250 rpm, bacterial cells were harvested by centrifugation and the pellet was resuspended in 50 mM potassium phosphate buffer pH 7.0 corresponding to 5×10^7 CFU/ml.” left out\nFor infection, fully developed leaves of 4 week old Arabidopsis plants were detached and placed in 0.8% agar Petri dishes. […] Symptoms were scored measuring the area of macerated tissue after 24 hour post inoculation at 22° C. and 12 h photoperiod. Area was measured by ImageJ software. […]"}, "[6]": {"test_system": "transgenic Arabidopsis leaves", "assay": "Constitutive activation of defense responses (H2O2, callose) in transgenic plants", "assay_type": "cell-based, Arabidopsis thaliana", "details": "no elicitor", "method": "Leaves were stained with 3,3′-diaminobenzidine (DAB) for H2O2 visualization (upper panel) and with aniline blue for callose visualization (lower panel).\nas §1"}},
  "note": "Entries after “also recorded” stand apart in the source; their conditions may differ.",
  "data": [
    {"molecule": "B1", "values": [
      {"measurement": "ethylene accumulation upon stimulation with elfl8", "setting": "[1]", "value": "did not"},
      {"measurement": "development of disease symptoms / susceptibility to Pst DC3000", "setting": "[2]", "value": "confers resistance"},
      {"measurement": "oxidative burst upon treatment with elfl8", "setting": "[3]", "value": "produced an oxidative burst; also recorded: robust oxidative burst"},
      {"measurement": "decrease in the number of living Agrobacterium cells", "setting": "[4]", "value": 30, "unit": "%"},
      {"measurement": "resistance to B. cinerea infection", "setting": "B. cinerea", "value": "not"},
      {"measurement": "resistance to Pectobacterium carotovorum subsp. carotovorum", "setting": "[5]", "value": "increased resistance; also recorded: confers resistance"},
      {"measurement": "constitutive activation of defense responses (H2O2 levels, callose deposits)", "setting": "[6]", "value": "do not show constitutive activation of defense responses"}
    ]}
  ]
}
